According to patent US7803572B2, “Protease detection assay” (Atlas Genetics, Ltd., priority 2003, dated 2010):
Like-named read-outs stand apart in the source and are kept apart here.

Legend:
porcine pancreas trypsin = target: T1, porcine pancreas trypsin (Sus scrofa, UniProt P00761); assay: Digestion of labelled protein with trypsin, differential pulse voltammetry; type: biochemical
T1 construct: purchased Sigma; host or cells: porcine pancreas
Procedure: (§1) Protease assays were performed as follows unless stated otherwise. […] Samples were incubated at 37° C. for 1 hour.
A digestion of Fc-BSA with trypsin was carried out as described above. […] The positive reaction has a peak position of 435 mV and a peak height of 4.58×10^−7 A; the no trypsin control reaction has a peak position of 432 mV and a peak height of 2.55×10^−8 A.
A digestion of unlabelled BSA with trypsin was carried out in the same manner as for the labelled molecules as described above. The differential pulse voltammogram results are shown in FIG. 10 in which (a) is the trace for a no-trypsin control reaction and (b) is the trace for trypsin BSA reaction.
A digestion of FcU-BSA with trypsin was carried out as described above. […] The positive reaction has a peak position of 97 mV and a peak height of 5.01×10^−7 A; there was no peak in the no-trypsin control reaction. […]
Five digestions of Fc-BSA with trypsin were carried out using the protocol described above. As described in the general protocol, 2 μl of enzyme was used for each 200 μl reaction; for reaction (i) 10 mg/ml enzyme solution was used; reaction (ii): 1 mg/ml; reaction (iii) 0.1 mg/ml; reaction (iv) 0.01 mg/ml and reaction (v) was a no-trypsin control. The differential pulse voltammogram results are shown in FIG. 14 with baseline correction.
Five digestions of Fc-BSA with trypsin were carried out using the protocol described above. In reaction (i) the incubation at 37° was carried out for 60 minutes, in reaction (ii) for 15 minutes, in reaction (iii) for 5 minutes, in reaction (iv) for 2 minutes and reaction (v) was a 0 minutes no-trypsin control. The differential pulse voltammogram results are shown in FIG. 15 with baseline correction.

[1] = target: T2, type II bovine pancreas α-chymotrypsin (Bos taurus, UniProt P00766); assay: Digestion of Fc-BSA with α-chymotrypsin, differential pulse voltammetry; type: biochemical
T2 construct: purchased Sigma; host or cells: bovine pancreas
Procedure: as §1
A digestion of Fc-BSA with α-chymotrypsin was carried out as described above. […] The positive reaction has a peak position of 438 mV and a peak height of 4.48×10^−7 A; the no α-chymotrypsin control reaction has a peak position of 432 mV and a peak height of 2.55×10^−8 A.

[2] = target: Bacillus thermoproteolyticus rokko thermolysin (Bacillus thermoproteolyticus, UniProt P00800); conditions: for peak: no-thermolysin control reaction; for peak height / peak position: positive reaction
Bacillus thermoproteolyticus rokko thermolysin, sequence (P00800 233-548): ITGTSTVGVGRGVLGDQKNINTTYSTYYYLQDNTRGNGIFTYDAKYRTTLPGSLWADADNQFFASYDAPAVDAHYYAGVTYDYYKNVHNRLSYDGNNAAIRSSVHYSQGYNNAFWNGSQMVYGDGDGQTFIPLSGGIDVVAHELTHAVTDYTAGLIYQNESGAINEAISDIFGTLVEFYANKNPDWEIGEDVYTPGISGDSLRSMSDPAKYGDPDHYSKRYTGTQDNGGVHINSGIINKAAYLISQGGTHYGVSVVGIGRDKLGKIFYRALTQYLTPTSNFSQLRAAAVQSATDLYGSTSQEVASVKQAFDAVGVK
Procedure: The low volume cell of FIG. 1 was filled with approximately 10 ml sodium chloride solution (100 mM). A 200 μl aliquot of the sample for analysis was placed in the glass sample chamber which was then placed in the low volume cell along with the reference and counter electrodes. The electrodes were connected to the AUTOLAB electrochemical workstation and differential pulse voltammetry carried out using the parameters described in Table 1. Prior to analysis the glassy carbon working electrode was polished (using BAS polishing kit catalogue number MF-2060) followed by conditioning. Electrode conditioning consists of cyclic voltammetry, sweeping between +−1 volt in the appropriate background buffer.
Protease assays were performed as follows unless stated otherwise. Lyophilised enzymes were re-suspended to give a concentration of 10 mgml^−1. Enzymes were resuspended in the following solutions: HCl (1 mM, pH 3.0) (trypsin, α-chymotrypsin, pepsin), NaCl (100 mM) (proteinase K, elastase, papain, carboxypeptidase, thermolysin). 75 μl of Fc-BSA solution (0.3-0.6 mgml^−1) was used per reaction. Each reaction was carried out in a total volume of 200 μl and the reactions were performed in the following buffers (final concentrations are given): 100 mM tris HCl pH7.8 (trypsin, α-chymotrypsin, thermolysin, proteinase K); 100 mM tris HCl pH 8.5 (elastase); 200 mM sodium acetate, 200 mM cysteine, 20 mM EDTA (papain); 10 mM HCl pH 2.0 (pepsin); 25 mM tris HCl pH7.5, 500 mM NaCl (carboxypeptidase). 2 μl enzyme (10 mgml^−1) was added to the […] reaction mixture. Samples were incubated at 37° C. for 1 hour. The reaction products were analysed by differential pulse voltammetry as described in Example 1.
Baseline corrected data was obtained using GPES MANAGER (Ecochemie BV, Utrecht, Netherlands) selecting baseline correction from the edit data menu, selecting moving average, minimum peak width 0.003V.
A digestion of Fc-BSA with thermolysin was carried out as described above with the digestion incubation at 37° C.
A digestion of Fc-BSA with thermolysin was carried out as described above with the digestion incubation at 70° C.

elastase = assay: Digestion of Fc-BSA with elastase, differential pulse voltammetry; type: biochemical
Procedure: as §1
A digestion of Fc-BSA with elastase was carried out as described above. […] The positive reaction has a peak position of 430 mV and a peak height of 2.57×10^−7 A; the no elastase control reaction has a peak position of 432 mV and a peak height of 2.55×10^−8 A.

[3] = target: T3, porcine stomach mucosa pepsin (Sus scrofa, UniProt P00791); assay: Digestion of Fc-BSA with pepsin, differential pulse voltammetry; type: biochemical
T3 construct: purchased Sigma; host or cells: porcine stomach mucosa
T3 sequence (P00791 60-385): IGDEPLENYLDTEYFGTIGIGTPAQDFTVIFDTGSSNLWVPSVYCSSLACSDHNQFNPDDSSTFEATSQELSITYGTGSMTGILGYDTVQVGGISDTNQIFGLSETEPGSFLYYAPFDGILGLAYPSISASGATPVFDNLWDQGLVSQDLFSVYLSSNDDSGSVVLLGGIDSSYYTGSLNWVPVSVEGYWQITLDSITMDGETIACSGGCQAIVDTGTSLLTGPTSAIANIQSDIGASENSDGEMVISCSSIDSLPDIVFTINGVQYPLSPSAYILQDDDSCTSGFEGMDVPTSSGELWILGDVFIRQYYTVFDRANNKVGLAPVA
Procedure: as §1
A digestion of Fc-BSA with pepsin was carried out as described above. […] The positive reaction has a peak position of 537 mV and a peak height of 8.90×10^−8 A; the no-pepsin control reaction has a peak position of 522 mV and a peak height of 4.19×10^−8 A.

[4] = Example 6 reaction (i): 2 μl of 10 mg/ml enzyme solution
[5] = Example 6 reaction (ii): 1 mg/ml enzyme solution
[6] = Example 6 reaction (iii): 0.1 mg/ml enzyme solution
[7] = Example 6 reaction (iv): 0.01 mg/ml enzyme solution
[8] = Example 6 reaction (v): no-trypsin control
[9] = Example 7 reaction (i): incubation at 37° for 60 minutes
[10] = Example 7 reaction (ii): 15 minutes
[11] = Example 7 reaction (iii): 5 minutes
[12] = Example 7 reaction (iv): 2 minutes
[13] = Example 7 reaction (v): 0 minutes no-trypsin control
[14] = positive reaction, 2 μl enzyme (10 mgml^−1), 37° C. for 1 hour
[15] = no α-chymotrypsin control reaction
[16] = positive reaction, 37° C. for 1 hour
[17] = positive reaction, 10 mM HCl pH 2.0, 37° C. for 1 hour

T1 sequence (P00761 9-231): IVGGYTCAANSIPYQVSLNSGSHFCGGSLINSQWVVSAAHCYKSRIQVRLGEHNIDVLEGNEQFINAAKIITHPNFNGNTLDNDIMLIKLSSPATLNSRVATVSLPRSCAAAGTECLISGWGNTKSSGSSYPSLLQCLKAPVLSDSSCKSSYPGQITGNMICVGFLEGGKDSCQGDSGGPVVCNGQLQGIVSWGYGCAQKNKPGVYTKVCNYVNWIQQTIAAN

Fc-BSA: Bovine serum albumin labelled with ferrocene methanoyl groups via N-hydroxysuccinimide ester; estimated 10 to 20 ferrocenes per BSA
peak height (porcine pancreas trypsin; [4]): 5.42×10^−7 A | peak position (porcine pancreas trypsin; [4]): 430 mV | peak height (porcine pancreas trypsin; [5]): 2.29×10^−7 A | peak position (porcine pancreas trypsin; [5]): 428 mV | peak height (porcine pancreas trypsin; [6]): 1.04×10^−7 A | peak position (porcine pancreas trypsin; [6]): 429 mV | peak height (porcine pancreas trypsin; [7]): 7.53×10^8 A | peak position (porcine pancreas trypsin; [7]): 429 mV | peak height (porcine pancreas trypsin; [8]): 3.17×10^−9 A | peak position (porcine pancreas trypsin; [8]): 448 mV | peak height (porcine pancreas trypsin; [9]): 2.49×10^−7 A | peak position (porcine pancreas trypsin; [9]): 435 mV | peak height (porcine pancreas trypsin; [10]): 1.88×10^−7 A | peak position (porcine pancreas trypsin; [10]): 429 mV | peak height (porcine pancreas trypsin; [11]): 1.57×10^−7 A | peak position (porcine pancreas trypsin; [11]): 435 mV | peak height (porcine pancreas trypsin; [12]): 1.04×10^−7 A | peak position (porcine pancreas trypsin; [12]): 428 mV | peak height (porcine pancreas trypsin; [13]): 2.11×10^−8 A | peak position (porcine pancreas trypsin; [13]): 460 mV | peak height (porcine pancreas trypsin; no-trypsin control reaction): 2.55×10^−8 A | peak position (porcine pancreas trypsin; no-trypsin control reaction): 432 mV | peak height (porcine pancreas trypsin; [14]): 4.58×10^−7 A | peak position (porcine pancreas trypsin; [14]): 435 mV | factor by which current observed at 435 mV increases upon digestion (porcine pancreas trypsin; trypsin digestion vs no-trypsin control, FIG. 3): 18 | peak height [1, 15]: 2.55×10^−8 A | peak position [1, 15]: 432 mV | peak height [1, 16]: 4.48×10^−7 A | peak position [1, 16]: 438 mV | peak ([2]; 37° C.): no peak was found | peak ([2]; 70° C.): no peak was found | peak height ([2]; digestion incubation at 37° C.): 1.62×10^−8 A | peak position ([2]; digestion incubation at 37° C.): 429 mV | peak height ([2]; digestion incubation at 70° C.): 2.0×10^−8 A | peak position ([2]; digestion incubation at 70° C.): 455 mV | peak height (elastase; no elastase control reaction): 2.55×10^−8 A | peak height (elastase; positive reaction, tris HCl pH 8.5, 37° C. for 1 hour): 2.57×10^−7 A | peak height ([3]; no-pepsin control reaction): 4.19×10^−8 A | peak position ([3]; no-pepsin control reaction): 522 mV | peak height [3, 17]: 8.90×10^−8 A | peak position [3, 17]: 537 mV
